The supplement of paper PMC9942255
Several values for one entry are separate records, joined by “and”; a condition that tells them apart may be missing. Identical values can stand only once.

Tested on: Bacillus subtilis DB104 (SP-AmyQ fusion secretion)
Assay: AmyQ secretion efficiency, weighted average sort bin (1 = best secretion, 10 = worst) (bin number (weighted average, 1-10)); higher = lower secretion efficiency
Summary of the method: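 Occupied alginate beads were sorted by large-particle flow cytometry into 10 equally populated bins according to green/red fluorescence ratio. Each bead (~65 nL) held fluorescein-starch and about 0.3 cells of a B. subtilis DB104 library expressing mature AmyQ fused to designed signal peptides from the amyE locus, and beads were grown about 13 h at room temperature and stained with nile red before sorting. Bin amplicons were Illumina-sequenced, and the secretion score is the read-frequency-weighted average bin number, normalised to beads per bin, excluding low-abundance sequences.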

Sequence | AmyQ secretion efficiency
MLCVMMLLFSAIASFPVSAQVKDQ | 5.88
MKKQIITATTAVVLGSTLFAGAPPATASVPVVGASAQSI | 2.17
MKKSAAVLLSLGLVSGFSYGAGHVAEAKTK | 2.59
MKVKRKRLLLLLFAFEPSASGKKL | 7.56
MKLAKRVSALTPSTTLAITAKRKEL | 8.52
MKWMCSICCAAVLLAGAAAAQAEAV | 4.13
MLKKVILAAFILVGSTLGEDSFSSDASAKHV | 4.32
MHLIRAAGAVCLAVVLIAGCRFGSIIVSAEGENT | 5.81
MKKWMAGLFLAAAVLLCLMVPQQKQGASS | 3.94
MPIKKKVMMCTSGTTSFGSMSFPTLTNSGGFKE | 7.09
MKKLLAAGIIGLLTVSIASPSFVAEK | 6.79
MKKKQVLALTAAAGLGLTALHSAPAAKAAPL | 2.4
MKVPKTMLLSTAAGLLLSLTATSCSAHYV | 4.58
MKWMCSICCAAVLLAGRRRRRKAQAEAV | 6.72
MKKTIMSFKRKKKKSTTAFGAHASAKEI | 6.45
MKRLRRKRRRWMVFLMNWVTPDRKTAAAAVY | 6.85
MLKKKWMVGLLAGCLAAGGFSYNAFWTEN | 6.56
MKLAKRVSALTPSTTLAIEAKAKEL | 7.23
MTQFAITLSVLCALILLVPTLLVIPFQHNKEAGASV | 7.59
MKKKKRRIVSILFMFGLVMGFSQFQPSTVFAADK | 3.29
MRKKCSSMSFTSVCLWILVLLLSCLSGKSAYAATS | 3
MMKKGLLAGALTATVLFGTCAVDVPGIISPKTIEAASQ | 4.02

Sequence | AmyQ secretion efficiency
MKKRLIGFLVLVPALIKSGITLIEANKK | 6.34
MKKRKRRNFKRFIAAFLVLALMISLVPADILAKST | 1.87
MKKMLGKSRYGAGILVFFAVVVKDVFAAGL | 4.68
MKKWIYTVLVLSIAGIGGFSVHAASS | 6.39
MKKSQYFIVFICFFVLFSVHPIAVAAADS | 3.83
MKRLLVSLRVWMVFLMNWVTPDRKTAAYAVY | 7.68
MRNLTKTSLLLAGLCTAAQSEFVTHASAEES | 4.61
MMKKGLLAGALTATVLFRKCAVRVPGIISPKTAEAASQ | 6.57
MRKKRVITCVMAASLTLGSLLAAAIATAKED | 3.82
MKLSVKIAGVLTVAAAAMTAKMYATAEEE | 6.08
MKKRLIAPMLLSAASLAFFAMSGSMQAAAY | 5.75
MKLRKVLTGSVLSLGLLIVSASPAFATSP | 2.48
MLKKKWMVGLLAGCLAAGGFSYNAFDTEN | 6.19
MKKFMNFSSVMLATALFLGLTPAGANAADL | 4.23
MFKKLKRRKSALTFSLSLVLPLDGHAKAQEV | 6.09
MKKWMITIAMLILAGIALFVFISPFKSHKT | 6.23
MKKWMITIAMLILAGIALFVFISPWKSHKT | 6.16
MKKMNFSSNSIIVMLATALFLGLTPAGANAADL | 4.32
MKKQTTIINNSTIITATTAVVLGSTLFAGAASAQSI | 3.18
MMIKQCYGCKSLLVFGTTAAHAEET | 7.62
MKKWMITIAMLILAGIALFVFISPVKSHKT | 6.53
MKKKLAAGLTASAIVGTTLVVTPAECATI | 4.47

Sequence | AmyQ secretion efficiency
MKKWKYRRRVVLVLSIAGIGGFSVHAASS | 7.42
MRKRRKKILALFVLSLGLLSFMVTPVSAASK | 2.65
MAIIIAIIAAVIVIAALITFAVRNASPG | 6.55
MKSKGSIMACLILFSFTITGDPNTETISAFSN | 4.93
MKKKLAAGLTASAIVGTTLVVTPAEAARK | 3.53
MKKKQVMTLNSSLALTAAAGLGLTALHSAPAAKAAPL | 4.06
MNKPTKLFSTLALAAGMTAAAAGGAGTIHAQRR | 6.62
MNKFLKSNFRFLLAAALGISLLASSNFIKASND | 4.18 and 4.22 and 2.8
MKWMCMICCAAVLLAMIGAAQAEAV | 3.44
MSTIGLLFMLCLAALFTIGFPAQQADAAEA | 2.8
MNKLKRLSMLTVMIASVFIFSSHVLAAQY | 2.99
MAIIIAIIAAVIVIAALITFNVNNASPG | 7.54
MKVPKTMLLSTAAGLLLSLTATSASAHYV | 5.6
MKVLLSALLLLLFAFEPSISGKKL | 7.18
MKLSVKIAGVLTVAAAAMTAKMYMTAKGN | 6.8
MRMLWRSLALCGLALTLAPCCQAAEP | 1.93
MKKRLIGFLVLVPALIMSGITLIEYNKK | 9.98
MLIRKRRNFKRFIAAFLVLALMISLVPADVLAKST | 1.85
MKKQIITATTAVVLGSTLFADDEASAQSI | 2.17
MKKKLAAGLTASAIVGTTLVVTPAEYATI | 6.06
